Data on 3 molecules can be found in patent publication US20140302123A1.

Experiment [1] concerns the target T1, PTPN4-PDZ (residues G499-N604) (human), P29074.
T1 chain: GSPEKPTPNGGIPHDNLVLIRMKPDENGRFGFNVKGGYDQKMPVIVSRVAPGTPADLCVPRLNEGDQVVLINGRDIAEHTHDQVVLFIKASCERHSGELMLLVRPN
The experiment in a line: NMR titration, 15N-labeled PTPN4-PDZ with unlabeled peptide.

Experiment [2] concerns the target T1, PTPN4-PDZ (residues G499-N604) (human), …. The experiment in a line: NMR titration.

In experiment [1], LNLGNDPDRGTSI (modifications not checked) [GluD2-13] registered a Kd of 128 µM.
Consider SNRRVYKKMPSIESDV (modifications not checked) [GluN2A-16], for which, in experiment [2], the fold increase in affinity against Cyto13-att stood at 4 fold. In addition, the Kd in experiment [1] was 42 µM.
For SWESYRSGGEIRL (modifications not checked) [EIRL-13], the dissociation constant Kd in experiment [1] was 1170 µM.
